Test results published in patent US8969289.
Changes are numbered by the printed parent chain. Positions of bridges follow the written chain, without caps; N, C: chain ends. No end group written: not given here.

Tests used:
human β-klotho (human) = human β-klotho (human) (UniProt Q86Z14); assay: cell-based or functional assay
[1] = molecular target: β-klotho of differentiated 3T3-L1 adipocytes (mouse) (UniProt Q99N32); assay: cell-based or functional assay
human serum albumin [2] = molecular target: T1, human serum albumin (human, UniProt P02768 25-609); assay: comment in the summary table; Biacore at lowered pH; target not given, HSA by paragraph 278
T1 construct: mature; Purified or recombinant albumin from suppliers; also called HSA; HuSA

human serum albumin [3] = molecular target: T1, human serum albumin; assay: isothermal titration calorimetry (refers to FIG. 11)
Description: SABA-FGF21 fusion protein plus buffer was placed in the instrument sample cell at a concentration range of 0.4 to 1.0 mg/mL protein. The matching buffer was placed in the reference cell. Concentrations were determined using extinction coefficients calculated from the protein sequences of the pure proteins. The instrument reaction cell was equilibrated at 37° C. […] The resultant thermogram data was fitted using Origin™ evaluation software package (Microcal Inc.) version 2.0.2 to estimate the stochiometry, enthalpy, and equilibrium disassociation constant (K_D) of the protein-protein binding reaction.

Amylin receptor = Amylin receptor (chimpanzee; human, UniProt O60896 24-148); assay: cell-based or functional assay
Sequence of Amylin receptor (O60896 24-148): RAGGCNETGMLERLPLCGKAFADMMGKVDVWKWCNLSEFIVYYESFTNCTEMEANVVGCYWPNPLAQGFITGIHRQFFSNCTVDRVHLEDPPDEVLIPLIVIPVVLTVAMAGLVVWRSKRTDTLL

Sequence of β-klotho of differentiated 3T3-L1 adipocytes (mouse) (Q99N32 whole entry): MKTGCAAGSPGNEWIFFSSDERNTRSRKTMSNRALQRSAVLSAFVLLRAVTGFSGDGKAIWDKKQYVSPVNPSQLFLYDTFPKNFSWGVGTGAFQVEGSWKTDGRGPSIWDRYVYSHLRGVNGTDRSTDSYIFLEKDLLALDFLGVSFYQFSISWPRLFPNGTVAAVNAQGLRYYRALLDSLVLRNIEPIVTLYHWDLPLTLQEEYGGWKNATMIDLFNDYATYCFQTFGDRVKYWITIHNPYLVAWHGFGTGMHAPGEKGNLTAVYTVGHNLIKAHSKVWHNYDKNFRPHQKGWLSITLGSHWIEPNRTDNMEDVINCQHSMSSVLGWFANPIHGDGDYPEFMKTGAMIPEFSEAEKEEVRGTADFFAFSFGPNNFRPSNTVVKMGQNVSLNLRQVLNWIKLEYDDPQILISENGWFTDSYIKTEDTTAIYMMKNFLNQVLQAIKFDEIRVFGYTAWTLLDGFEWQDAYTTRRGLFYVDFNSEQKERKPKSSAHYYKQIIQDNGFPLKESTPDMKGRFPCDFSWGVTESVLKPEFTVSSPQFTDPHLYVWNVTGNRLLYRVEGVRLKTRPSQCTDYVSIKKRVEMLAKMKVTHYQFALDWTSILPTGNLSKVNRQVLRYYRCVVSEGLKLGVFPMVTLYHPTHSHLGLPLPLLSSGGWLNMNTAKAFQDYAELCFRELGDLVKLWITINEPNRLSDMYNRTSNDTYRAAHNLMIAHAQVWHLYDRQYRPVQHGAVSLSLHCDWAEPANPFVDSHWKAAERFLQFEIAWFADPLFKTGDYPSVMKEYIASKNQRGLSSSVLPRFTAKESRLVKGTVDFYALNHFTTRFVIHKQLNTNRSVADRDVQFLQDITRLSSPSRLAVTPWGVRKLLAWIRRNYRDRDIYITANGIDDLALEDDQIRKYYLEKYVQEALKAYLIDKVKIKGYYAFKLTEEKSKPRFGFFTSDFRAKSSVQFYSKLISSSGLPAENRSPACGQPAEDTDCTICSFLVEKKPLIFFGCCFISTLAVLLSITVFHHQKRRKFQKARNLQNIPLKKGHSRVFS

**Q.** Which EC50 (potency), pERK 1/2 in HEK β-Klotho expressing stable cells (human β-klotho (human)) does the source give for “His-tagged FGF21 (from UniProt Q9NSA1 29-209) (ligand)” here?
**A.** 7 nM

**Q.** And the Efficacy (% of His6-tagged FGF21 maximal activity), pERK 1/2 in HEK β-Klotho expressing stable cells (human β-klotho (human))?
**A.** 100%

**Q.** And the EC50, pERK 1/2 in 3T3-L1 adipocytes [1]?
**A.** 4 nM

**Q.** What about the Fold Activation, pERK 1/2 in 3T3-L1 adipocytes [1] of the same molecule?
**A.** 2.1 fold

B1: SABA4.1 (designed binder)
chain: MGVSDVPRDLEMVAATPTSLLISWEDDSYYSRYYRITYGETGGNSPVQEFTVPSDLYTATISGLKPGVDYTITVYAVTYDVTDLIMHEPISINYRTEIDKPSQHHHHHH
notes: Core 4 Adnectin (carries a scaffold mutation) with AdNT1, AdCT1 and His6
**Q.** For B1, which “fold decrease in KD at pH < 6.0” value (human serum albumin [2]) is on record?
**A.** > 2 fold

B2: SABA5.1 (designed binder)
chain: B1 chain with M12V
notes: Scaffold-perfect version of SABA4 with the same BC, DE and FG loops; AdNT1, AdCT1 and His6
**Q.** B2 was tested. Which “fold decrease in KD at pH < 6.0” value (human serum albumin [2]) did it give?
**A.** > 2 fold

B3: SABA1-FGF21v1 (designed binder)
chain: MGVSDVPRDLEVVAATPTSLLISWHSYYEQNSYYRITYGETGGNSPVQEFTVPYSQTTATISGLKPGVDYTITVYAVYGSKYYYPISINYRTEIEKPSQGSGSGSGSGSGSGSPIPDSSPLLQFGGQVRQRYLYTDDAQQTEAHLEIREDGTVGGAADQSPESLLQLKALKPGVIQILGVKTSRFLCQRPDGALYGSLHFDPEACSFRELLLEDGYNVYQSEAHGLPLHLPGNKSPHRDPAPRGPARFLPLPGLPPALPEPPGILAPQPPDVGSSDPLSMVGPSQGRSPSYAS
notes: Single-chain fusion: SABA core 1 with AdNT1 leader and AdCT7 tail, (GS)7 linker, FGF21 core with FNT3 leader and C-terminal S; also called SABA-FGF21v1 fusion; FGF21-SABA fusion
**Q.** For B3, which Kd (human serum albumin [3]) is on record?
**A.** ~4 nM

**Q.** Which “Efficacy (% of native peptide ligand maximal activity), cellular cAMP assay” value (Amylin receptor) does the source give for KCNTATCATQRLANFLVRSSNNLGPVLPPTNVGSNTY-NH2 (disulfide 2-7) [Amylin Control Peptide] here?
**A.** 100%

B4: SABA1.7-(ED)5G-Cys-PEG20-Amylin-CONH2 (designed binder)
chain: MGVSDVPRDLEVVAATPTSLLISWHSYYEQNSYYRITYGETGGNSPVQEFTVPYSQTTATISGLKPGVDYTITVYAVYGSKYYYPISINYRTEIEDEDEDEDEDGC
modifications: Maleimide-PEG20 spacer (X1) between the Cys after (ED)5G and the amylin peptide; disulfide bridge between the two Cys of the amylin part; C-terminal amidation
**Q.** With B4 as the molecule, how does the “Cell based Potency (EC50), cellular cAMP assay” value (Amylin receptor) read?
**A.** 12.2 nM

**Q.** And the “Efficacy (% of native peptide ligand maximal activity), cellular cAMP assay” value (Amylin receptor)?
**A.** 119%
